Here are results for 1 molecule from patent US20030092613A1, “Alpha7 nicotinic receptor peptides as ligands for beta amyloid peptides” (priority 2000, published 2003).

The target of this assay is β-amyloid1-42 (UniProt P05067). In words: cell-based or functional assay.

Turning to Ac-SERFYECCKEP-NH2 (also: cyclic, bridge not given here) [cyclic peptide (Ac)…-amide], the ACh rel % Inh @ 100 µM came out at 81% and the Inh ACh rel IC50 is 316 nM.
